The record followed here is article doi:10.1101/2025.01.28.635075.

Broadly, the stoichiometry N is the number of molecules, sites or subunits per partner or assembly.

For experiment [1], the target named is MMOH protomer (αβγ) from Methylosinus sporium 5 (Methylosinus sporium 5). In words: cryo-EM structure.
Experiment [2] deals with soluble methane monooxygenase hydroxylase (MMOH), α2β2γ2, from Methylosinus sporium 5 (Methylosinus sporium 5). In words: cryo-EM structure.

“And” between values parts separate entries of the source, which are not always exact repeats. Equal entries are not always repeated.

In experiment [1], “MMOH protomer (αβγ) from Methylosinus sporium 5 (from UniProt A0ACH3GMT4 1-520) (complex)” showed a stoichiometry N of 2.
With “regulatory component of soluble methane monooxygenase (MMOB) from Methylosinus sporium 5 (natural protein)”, in experiment [2], the stoichiometry N was 1 and 2.
